Data as given in PMC10925265 (bioRxiv, 2024).

Assays:
[1] = molecular target: calpain-3 (C129A) ΔNS&IS1 (human) (UniProt P20807); test: SEC-MALS
[2] = molecular target: the molecule itself; test: native gel or EMSA
[3] = molecular target: the molecule itself; test: SEC-SAXS
[4] = molecular target: the molecule itself; test: SEC-MALS

Molecule: titin N2A region I81-I83 fragment (without His-tag) (domain or fragment)
- stoichiometry N (titin per calpain-3) [1]: 2

B1: calpain-3 (C129A) ΔNS&IS1 (enzyme, human, UniProt P20807-1 1-821, looked up)
chain: MISRNFPIIGVKEKTFEQLHKKCLEKKVLYVDPEFPPDETSLFYSQKFPIQFVWKRPPEICENPRFIIDGANRTDICQGELGDAWFLAAIACLTLNQHLLFRVIPHDQSFIENYAGIFHFQFWRYGEWVDVVIDDCLPTYNNQLVFTKSNHRNEFWSALLEKAYAKLHGSYEALKGGNTTEAMEDFTGGVAEFFEIRDAPSDMYKIMKKAIERGSLMGCSIDTIIPVQYETRMACGLVRGHAYSVTGLDEVPFKGEKVKLVRLRNPWGQVEWNGSWSDRWKDWSFVDKDEKARLQHQVTEDGEFWMSYEDFIYHFTKLEICNLTADALQSDKLQTWTVSVNEGRWVRGCSAGGCRNFPDTFWTNPQYRLKLLEEDDDPDDSEVICSFLVALMQKNRRKDRKLGASLFTIGFAIYEVPKEMHGNKQHLQKDFFLYNASKARSKTYINMREVSQRFRLPPSEYVIVPSTYEPHQEGEFILRVFSEKRNLSEEVENTISVDRPVKKKKTKPIIFVSDRANSNKELGVDQESEEGKGKTSPDKQKQSPQPQPGSSDQESEEQQQFRNIFKQIAGDDMEICADELKKVLNTVVNKHKDLKTHGFTLESCRSMIALMDTDGSGKLNLQEFHHLWNKIKAWQKIFKHYDTDQSGTINSYEMRNAVNDAGFHLNNQLYDIITMRYADKHMNIDFDSFICCFVRLEGMFRAFHAFDKDGDGIIKLNVLEWLQLTMYA
- stoichiometry N [2]: 2
- stoichiometry N [3]: 6
- stoichiometry N [4]: 5
